Source: patent US10808024B2, “Antibodies against immunocomplexes comprising cyanobacterial cyclic peptide hepatotoxins” (priority 2015, dated 2020)
Residue numbers refer to the chain shown, from its start.

Legend:
[1] = test system: immunocomplexes of CCPH variants and anti-Adda mAb; test: Screening and cross-reactivity studies of anti-IC scFv-AP binders, specificity class; assay type: binding
[2] = test system: immunocomplexes of MC-XZ and Nod-R with anti-Adda mAb; test: Cross-reactivity profile of anti-IC binders by single-step non-competitive assay (FIG. 5); assay type: binding; details: toxin 0.1 to 60 μg/L

B1: SA55D1: MC-LZ subgroup-specific anti-IC binder (antibody, V domains shown)
VH: EVQLLESGGGLVQPGGSLRLSCAASGFTFSSDVMHWVRQAPGKGLEWVSVISPYDGYTRYADSVKGRFTISRDNSKNTLYLQMNSLRAEDTAVYYCARHKGGYRRAYMDYWGQGTLVTVSS
VL: EIVLTQSPGTLSLSPGERATLSCRASQSVSSSALAWYQQKPGQAPRLLIYGASSRATGVPDRFSGSGSGTDFTLTISRLEPEDFAVYYCQQSYSYPWTFGQGTKVEIKRT
modifications: Clone SA55D1; DOMAIN (31)..(35) CDR1; DOMAIN (50)..(66) CDR2; DOMAIN (99)..(110) CDR3; DOMAIN (24)..(35) CDR1; DOMAIN (51)..(57) CDR2; DOMAIN (90)..(98) CDR3
Specificity of anti-IC antibody (CCPH immunocomplexes recognized) [1]: MC-LZ subgroup-specific
Specificity (cross-reactive pattern) [2]: specific towards MC-XZ, where X=L (Leu)

B2: SA44E11: anti-IC antibody recognizing immunocomplexes comprising MC-RR (antibody, V domains shown)
VH: EVQLLESGGGLVQPGGSLRLSCAASGFTFSDYYMHWVRQAPGKGLEWVSEISTYNGYTDYADSVKGRFTISRDNSKNTLYLQMNSLRAEDTAVYYCARGGEPGDDWGQGTLVTVSS
VL: B1 VL with S92Y, Y93S, Y95L
modifications: Clone SA44E11; DOMAIN (31)..(35) CDR1; DOMAIN (50)..(66) CDR2; DOMAIN (99)..(105) CDR3; DOMAIN (24)..(35) CDR1; DOMAIN (51)..(57) CDR2; DOMAIN (90)..(98) CDR3
Specificity of anti-IC antibody (CCPH immunocomplexes recognized) [1]: recognize immunocomplexes comprising MC-RR

B3: SA57D4: subgroup-specific anti-IC antibody (antibody, V domains shown)
VH: EVQLLESGGGLVQPGGSLRLSCAASGFTFSGYGMHWVRQAPGKGLEWVSAISDLNGSTYYADSVKGRFTISRDNSKNTLYLQMNSLRAEDTAVYYCARNGWGDMDLWGQGTLVTVSS
VL: B1 VL with Y95L
modifications: Clone SA57D4; DOMAIN (31)..(35) CDR1; DOMAIN (50)..(66) CDR2; DOMAIN (99)..(106) CDR3; DOMAIN (24)..(35) CDR1; DOMAIN (51)..(57) CDR2; DOMAIN (90)..(98) CDR3
Specificity of anti-IC antibody (CCPH immunocomplexes recognized) [1]: subgroup-specific

B4: SA32F1: variant-specific anti-IC antibody, Nod-R (antibody, V domains shown)
VH: EVQLLESGGGLVQPGGSLRLSCAASGFTFSNYYMHWVRQAPGKGFEWVSSIITNGGETDYADSVKGRFTISRDNSKNTLYLQMNSLRAEDTAVYYCARLPVTRPYYAVFDYWGQGTLVTVSS
VL: B1 VL with Y93S
modifications: Clone SA32F1; DOMAIN (31)..(35) CDR1; DOMAIN (50)..(66) CDR2; DOMAIN (99)..(110) CDR3; DOMAIN (24)..(35) CDR1; DOMAIN (51)..(57) CDR2; DOMAIN (90)..(98) CDR3
Specificity of anti-IC antibody (CCPH immunocomplexes recognized) [1]: recognize immunocomplexes comprising Nod-R

B5: SA34G1: variant-specific anti-IC antibody, Nod-R (antibody, V domains shown)
VH: EVQLLESGGGLVQPGGSLRLSCAASGFTFSDYWMHWVRQAPGKGLEWVSEIIPYSGYTNYADSVKGRFTISRDNSKNTLYLQMNSLRAEDTAVYYCARETWGYPSFDYWGQGTLVTVSS
VL: B1 VL with A33N, Y93S, Y95T
modifications: Clone SA34G1; DOMAIN (31)..(35) CDR1; DOMAIN (50)..(66) CDR2; DOMAIN (99)..(108) CDR3; DOMAIN (24)..(35) CDR1; DOMAIN (51)..(57) CDR2; DOMAIN (90)..(98) CDR3
Specificity of anti-IC antibody (CCPH immunocomplexes recognized) [1]: recognize immunocomplexes comprising Nod-R
